{"source": "patent US8574601B2", "about": "“Sustained-release polymer micelle disruptable by HDL” (Nanocarrier Co., Ltd., priority 2010, dated 2013)", "test": "Rat intravenous administration test of polymer micelle encapsulating G-CSF (Example 1), plasma G-CSF concentration", "format": "in vivo", "conditions": "100 μg/kg i.v. tail vein, male Wistar rats; FIG. 3", "description": "PEG-pGlu (10-40, 30% Chol) was used as a block copolymer. The block copolymer was weighed in a vial. A 20 mM 2-morpholinoethanesulfonic acid monohydrate (MES) buffer (pH 5) was added thereto so as to achieve a polymer concentration of 2 mg/mL and the mixture was vigorously stirred at 4° C. overnight. The polymer solution was subjected to ultrasonic irradiation (in an ice water bath, Low, interval of 1 second, 10 minutes) using a biodisruptor (High Power Unit manufactured by NIHONSEIKI KAISHA LTD.) and then treated with a 0.22-μm membrane filter. Thus, an empty micelle solution having a polymer concentration of 2 mg/mL was obtained. […]\nThe solution of the polymer micelles encapsulating G-CSF obtained above was administered to male Wistar rats via the tail vein. […] The plasma G-CSF concentration was measured using a G-CSF-ELISA kit (manufactured by RayBiotech, Inc.). […]\nFIG. 3 illustrates the results of Example 1 (average±SD). FIG. 3 also illustrates theoretical values for the time-course of plasma concentration of a mixed polymer micelle (1:1), which theoretical values were calculated from the results of the time-courses of the plasma concentration of the test examples using PEG-pGlu (10-40, 30% Chol) and PEG-pGlu (10-40, 60% C8)."}
{"molecule": "G-CSF: G-CSF solution (100 μg/mL) administered directly (protein, UniProt P09919 31-207, looked up) Granulocyte …: TPLGPASSLPQSFLLKCLEQVRKIQGDGAALQEKLVSECATYKLCHPEELVLLGHSLGIPWAPLSSCPSQALQLAGCLSQLHSGLFLYQGLLQALEGISPELGPTLDTLQLDVADFATTIWQQMEELGMAPALQPTQGAMPAFASAFQRRAGGVLVASHLQSFLEVSYRVLRHLAQP", "values": [{"measurement": "retention time in plasma", "value": "extremely short"}]}
